Biological target: biotinylated human DLL3 protein expressed as a human IgG1 fusion protein (human) (UniProt Q9NYJ7)
Assay: Octet BLI; biotinylated huDLL3-IgG1 fusion on streptavidin tips; single 50 nM; conditioned medium

biotinylated human DLL3 protein expressed as a human IgG1 fusion protein (human), sequence (Q9NYJ7 other isoform, or with tags, fused parts or gaps): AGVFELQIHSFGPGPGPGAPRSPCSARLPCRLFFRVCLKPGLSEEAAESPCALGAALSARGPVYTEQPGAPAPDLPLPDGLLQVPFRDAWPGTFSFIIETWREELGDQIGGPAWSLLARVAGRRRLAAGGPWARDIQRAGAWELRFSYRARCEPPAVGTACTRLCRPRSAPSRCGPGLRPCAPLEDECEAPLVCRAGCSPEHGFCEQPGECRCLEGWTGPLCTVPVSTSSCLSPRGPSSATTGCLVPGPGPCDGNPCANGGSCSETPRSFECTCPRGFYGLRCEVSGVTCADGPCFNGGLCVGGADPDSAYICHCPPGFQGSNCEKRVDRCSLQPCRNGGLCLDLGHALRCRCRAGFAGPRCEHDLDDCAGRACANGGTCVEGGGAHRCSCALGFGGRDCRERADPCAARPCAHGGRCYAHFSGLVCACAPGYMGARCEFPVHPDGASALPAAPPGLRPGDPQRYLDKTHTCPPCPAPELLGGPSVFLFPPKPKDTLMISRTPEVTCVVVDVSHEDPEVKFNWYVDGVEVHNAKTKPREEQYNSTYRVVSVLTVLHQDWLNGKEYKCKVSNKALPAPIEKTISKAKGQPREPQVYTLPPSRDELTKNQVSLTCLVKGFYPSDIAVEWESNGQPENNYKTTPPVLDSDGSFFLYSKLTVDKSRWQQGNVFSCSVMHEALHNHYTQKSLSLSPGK

| Binder | Kd [nM] |
| --- | --- |
| anti-DLL3 trispecific protein 2H011 (protein, part only; not given: anti-CD3 fragment and anti-albumin domain, part only) chain, part: EVQLVESGGGLVQPGGSLTLSCVASGSTSRINAMGWYRRAPGKQRELVAGISSDGSKVYADSVKGRFTISRDNAKNSVYLQMNSLRAEDTAVYYCYYFRRVSGSSMRYWGQGTLVTVSSGGGGSGGGSGGGGSGGGSHHHHHH | 5 |
| anti-DLL3 trispecific protein 2G03 (protein, part only; not given: CD3 binder and albumin binder, part only) chain, part: EVQLVESGGGLVQPGGSLTLSCVASGSTSSINAMGWYRRAPGKQRELVAGISSDGSLVYADSVKGRFTISRDNAKNSVYLQMNSLRAEDTAVYYCYYFRTVSGSSMRAWGQGTLVTVSSGGGGSGGGSGGGGSGGGSHHHHHH | 5.6 |
| anti-DLL3 trispecific protein 1E012 (protein, part only; not given: CD3 binder and albumin binder, part only) chain, part: EVQLVESGGGLVQPGGSLTLSCVASGSTSSTNAMGWYRRAPGKQRELVAGISSDGSKVYVDSVKGRFTISRDNAKNSVYLQMNSLRAEDTAVYYCYYFRTVSGSSMVYWGQGTLVTVSSGGGGSGGGSGGGGSGGGSHHHHHH | 5.3 |
| anti-DLL3 trispecific protein 1B09 (protein, part only; not given: anti-CD3 and anti-albumin domains, part only) chain, part: EVQLVESGGGLVQPGGSLTLSCVASGSTSSINAMAWYRRAPGKQRELVAGISSDGSKVYVDSVKGRFTISRDNAKNSVYLQMNSLRAEDTAVYYCYYFRTVSGSSMRYWGQGTLVTVSSGGGGSGGGSGGGGSGGGSHHHHHH | 5.4 |
| anti-DLL3 trispecific protein 2B07 (protein, part only; not given: CD3 fragment and albumin sdAb, part only) chain, part: EVQLVESGGGLVQPGGSLTLSCVASGSTSSINAFGWYRRAPGKQRELVAGISSDGSKVYADSVKGRFTISRDNAKNSVYLQMNSLRAEDTAVYYCYYFRTVRGSSMRYWGQGTLVTVSSGGGGSGGGSGGGGSGGGSHHHHHH | 5.7 |
| anti-DLL3 trispecific protein 1B011 (protein, part only; not given: CD3 binder and albumin binder, part only) chain, part: EVQLVESGGGLVQPGGSLTLSCVASGSTSRINAMGWYRRAPGKQRELVAGISSDGSKVYADSVKGRFTISRDNAKNSVYLQMNSLRAEDTAVYYCYYFRTVYGSSMRYWGQGTLVTVSSGGGGSGGGSGGGGSGGGSHHHHHH | 5.7 |
| anti-DLL3 trispecific protein 1F05 (protein, part only; not given: CD3 fragment and albumin sdAb, part only) chain, part: EVQLVESGGGLVQPGGSLTLSCVASGSTRSINAMGWYRRAPGKQRELVAGISSDGSKVYADSVKGRFTISRDNAKNSVYLQMNSLRAEDTAVYYCYYFHTVSGSSMRYWGQGTLVTVSSGGGGSGGGSGGGGSGGGSHHHHHH | 5.8 |
| anti-DLL3 trispecific protein 1F012 (protein, part only; not given: anti-CD3 fragment and anti-albumin sdAb, part only) chain, part: EVQLVESGGGLVQPGGSLTLSCVASGLTSSINAMGWYRRAPGKQRELVAGISSDGSKVYQDSVKGRFTISRDNAKNSVYLQMNSLRAEDTAVYYCYYFRTNSGSSMRYWGQGTLVTVSSGGGGSGGGSGGGGSGGGSHHHHHH | 5.8 |
| anti-DLL3 trispecific protein 2A04 (protein, part only; not given: anti-CD3 fragment and anti-albumin domain, part only) chain, part: EVQLVESGGGLVQPGGSLTLSCVASGSTSSINAMAWYRRAPGKQRELVAGISSDGSKVYTDSVKGRFTISRDNAKNSVYLQMNSLRAEDTAVYYCYYFRTTSGSSMRYWGQGTLVTVSSGGGGSGGGSGGGGSGGGSHHHHHH | 5.6 |
| anti-DLL3 trispecific protein 1D010 (protein, part only; not given: anti-CD3 and anti-albumin domains, part only) chain, part: EVQLVESGGGLVQPGGSLTLSCVASGSTSSNNAMAWYRRAPGKQRELVAGISSDGSKVYTDSVKGRFTISRDNAKNSVYLQMNSLRAEDTAVYYCYYFRTRSGSSMRYWGQGTLVTVSSGGGGSGGGSGGGGSGGGSHHHHHH | 5 |
| anti-DLL3 trispecific protein 1D09 (protein, part only; not given: anti-CD3 and anti-albumin domains, part only) chain, part: EVQLVESGGGLVQPGGSLTLSCVASGSTSSINAMAWYRRAPGKQRELVAGISSDGSKVYTDSVKGRFTISRDNAKNSVYLQMNSLRAEDTAVYYCYYFRTISGSSMRYWGQGTLVTVSSGGGGSGGGSGGGGSGGGSHHHHHH | 5.2 |
| anti-DLL3 trispecific protein 1A06 (protein, part only; not given: anti-CD3 fragment and anti-albumin sdAb, part only) chain, part: EVQLVESGGGLVQPGGSLTLSCVASGSTSSINAMGWYRRAPGKQRELAAGISSDGSSVYADSVKGRFTISRDNAKNSVYLQMNSLRAEDTAVYYCYYFRTVSGSSKRYWGQGTLVTVSSGGGGSGGGSGGGGSGGGSHHHHHH | 5.6 |
| anti-DLL3 trispecific protein 2D07 (protein, part only; not given: anti-CD3 fragment and anti-albumin sdAb, part only) chain, part: EVQLVESGGGLVQPGGSLTLSCVASGSTSSINAVGWYRRAPGKQRELVAGISSDGTKVYRDSVKGRFTISRDNAKNSVYLQMNSLRAEDTAVYYCYYFRTVQGSSMRYWGQGTLVTVSSGGGGSGGGSGGGGSGGGSHHHHHH | 6 |
| anti-DLL3 trispecific protein 1B01 (protein, part only; not given: anti-CD3 fragment and anti-albumin sdAb, part only) chain, part: EVQLVESGGGLVQPGGSLTLSCVASGSTSIINAMGWYRRAPGKQRELAAGISSDGSKVIADSVKGRFTISRDNAKNSVYLQMNSLRAEDTAVYYCYYFRRVSGSSMRYWGQGTLVTVSSGGGGSGGGSGGGGSGGGSHHHHHH | 5.2 |
| anti-DLL3 trispecific protein 1D03 (protein, part only; not given: CD3 binder and albumin binder, part only) chain, part: EVQLVESGGGLVQPGGSLTLSCVASGSTSSINAIGWYRRAPGKQRELVAGISSDGSKVLADSVKGRFTISRDNAKNSVYLQMNSLRAEDTAVYYCYYFRIVSGSSMGYWGQGTLVTVSSGGGGSGGGSGGGGSGGGSHHHHHH | 5.8 |
| anti-DLL3 trispecific protein 1D01 (protein, part only; not given: CD3 binder and albumin binder, part only) chain, part: EVQLVESGGGLVQPGGSLTLSCVASGSTSDINAMGWYRRAPGKQRELVAGISSDKSKVYADSVKGRFTISRDNAKNSVYLQMNSLRAEDTAVYYCYYFRTVRGSSMRYWGQGTLVTVSSGGGGSGGGSGGGGSGGGSHHHHHH | 5.8 |

| Binder | Kd [nM] |
| --- | --- |
| anti-DLL3 trispecific protein 2H03 (protein, part only; not given: CD3 binder and albumin binder, part only) chain, part: EVQLVESGGGLVQPGGSLTLSCVASGSTSSINAMAWYRRAPGKQRELVAGISSDGSKVYADSVKGRFTISRDNAKNSVYLQMNSLRAEDTAVYYCYYFRQVSGSSMRYWGQGTLVTVSSGGGGSGGGSGGGGSGGGSHHHHHH | 5.3 |
| anti-DLL3 trispecific protein 1H01 (protein, part only; not given: CD3 binder and albumin binder, part only) chain, part: EVQLVESGGGLVQPGGSLTLSCVASGSTSSINAMAWYRRAPGKQRELAAGISSDNSKVYADSVKGRFTISRDNAKNSVYLQMNSLRAEDTAVYYCYYFRTRSGSSMRYWGQGTLVTVSSGGGGSGGGSGGGGSGGGSHHHHHH | 5.7 |
| anti-DLL3 trispecific protein 2F03 (protein, part only; not given: anti-CD3 fragment and anti-albumin sdAb, part only) chain, part: EVQLVESGGGLVQPGGSLTLSCVASGSTSSINAMAWYRRAPGKQRELAAGISSDNSKVYADSVKGRFTISRDNAKNSVYLQMNSLRAEDTAVYYCYYFRTVGGSSMRYWGQGTLVTVSSGGGGSGGGSGGGGSGGGSHHHHHH | 5.9 |
| anti-DLL3 trispecific protein 1C05 (protein, part only; not given: CD3 binder and albumin binder, part only) chain, part: EVQLVESGGGLVQPGGSLTLSCVASGSTSSINAMAWYRRAPGKQRELVAGISSDGSKVYADSVKGRFTISRDNAKNSVYLQMNSLRAEDTAVYYCYYFRTVSGSHMRYWGQGTLVTVSSGGGGSGGGSGGGGSGGGSHHHHHH | 5.3 |
| anti-DLL3 trispecific protein 1E010 (protein, part only; not given: anti-CD3 fragment and anti-albumin sdAb, part only) chain, part: EVQLVESGGGLVQPGGSLTLSCVASGSVSSINAMGWYRRAPGKQRELVAGISSDGSKVYIDSVKGRFTISRDNAKNSVYLQMNSLRAEDTAVYYCYYFRTVSGLSMRYWGQGTLVTVSSGGGGSGGGSGGGGSGGGSHHHHHH | 5.7 |
| anti-DLL3 trispecific protein 2D011 (protein, part only; not given: anti-CD3 fragment and anti-albumin sdAb, part only) chain, part: EVQLVESGGGLVQPGGSLTLSCVASGTTSSINAMGWYRRAPGKQRELVAGISSDGSKVYADSVKGRFTISRDNAKNSVYLQMNSLRAEDTAVYYCYYFRTVWGSSMRYWGQGTLVTVSSGGGGSGGGSGGGGSGGGSHHHHHH | 5.4 |
| anti-DLL3 trispecific protein 4C01 (protein, part only; not given: anti-CD3 fragment and anti-albumin sdAb, part only) chain, part: EVQLVESGGGLVQPGGSLTLSCAASGSSVRFLSMAWYRQAPGKKRELVAGISADGSTVYIDSVKGRFTISRDNAKNSVYLQMNSLRAEDTAVYYCYAYRWKTRYTYWGQGTLVTVSSGGGGSGGGSGGGGSGGGSHHHHHH | 5.1 |
| anti-DLL3 trispecific protein 3C08 (protein, part only; not given: anti-CD3 fragment and anti-albumin sdAb, part only) chain, part: EVQLVESGGGLVQPGGSLTLSCAASGSSVKFLSMAWYRQAPGKKRELVAGISLDGSTDYIDSVKGRFTISRDNAKNSVYLQMNSLRAEDTAVYYCYAYRWTGRYTYWGQGTLVTVSSGGGGSGGGSGGGGSGGGSHHHHHH | 5.9 |
| anti-DLL3 trispecific protein 4B09 (protein, part only; not given: anti-CD3 fragment and anti-albumin sdAb, part only) chain, part: EVQLVESGGGLVQPGGSLTLSCAASGSSVSFLSMAWYRQAPGKKRELVAGISADGSTDYISSVKGRFTISRDNAKNSVYLQMNSLRAEDTAVYYCYAYSWTTRYTYWGQGTLVTVSSGGGGSGGGSGGGGSGGGSHHHHHH | 5.4 |
| anti-DLL3 trispecific protein 4D011 (protein, part only; not given: anti-CD3 fragment and anti-albumin sdAb, part only) chain, part: EVQLVESGGGLVQPGGSLTLSCAASGSSVRFLSMAWYRQAPGKKRELVAGISVDGSTDYIDSVKGRFTISRDNAKNSVYLQMNSLRAEDTAVYYCYAYRWRTRYTYWGQGTLVTVSSGGGGSGGGSGGGGSGGGSHHHHHH | 5.8 |
| anti-DLL3 trispecific protein 3D07 (protein, part only; not given: anti-CD3 and anti-albumin domains, part only) chain, part: EVQLVESGGGLVQPGGSLTLSCAASGSSVRFLSMAWYRQAPGKKRELVAGISADGSTDYIDSVKGRFTISRDNAKNSVYLQMNSLRAEDTAVYYCYAYSWTTRYTYWGQGTLVTVSSGGGGSGGGSGGGGSGGGSHHHHHH | 5.9 |
| anti-DLL3 trispecific protein 4A011 (protein, part only; not given: CD3 binder and albumin binder, part only) chain, part: EVQLVESGGGLVQPGGSLTLSCAASGSKVSFLSMAWYRQAPGKKRELVAGISADGSTTYIDSVKGRFTISRDNAKNSVYLQMNSLRAEDTAVYYCYAYRWKTRYTYWGQGTLVTVSSGGGGSGGGSGGGGSGGGSHHHHHH | 5.6 |
| anti-DLL3 trispecific protein 4F010 (protein, part only; not given: anti-CD3 and anti-albumin domains, part only) chain, part: EVQLVESGGGLVQPGGSLTLSCAASGSSVSFLSMAWYRQAPGKKRELVAGISIDGSTDYIKSVKGRFTISRDNAKNSVYLQMNSLRAEDTAVYYCYAYRWTTRYRYWGQGTLVTVSSGGGGSGGGSGGGGSGGGSHHHHHH | 5.8 |
| anti-DLL3 trispecific protein 4D08 (protein, part only; not given: anti-CD3 and anti-albumin domains, part only) chain, part: EVQLVESGGGLVQPGGSLTLSCAASGSSVNFLSMAWYRQAPGKKRELVAGISADGSTHYIDSVKGRFTISRDNAKNSVYLQMNSLRAEDTAVYYCYAYRWLTRYTYWGQGTLVTVSSGGGGSGGGSGGGGSGGGSHHHHHH | 5.9 |
| anti-DLL3 trispecific protein 3D011 (protein, part only; not given: CD3 binder and albumin binder, part only) chain, part: EVQLVESGGGLVQPGGSLTLSCAASGSSVSRLSMAWYRQAPGKKRELVAGISADGSRDYIDSVKGRFTISRDNAKNSVYLQMNSLRAEDTAVYYCYAYRWTTRYKYWGQGTLVTVSSGGGGSGGGSGGGGSGGGSHHHHHH | 5.3 |
